Series [1] is described as follows: Galactose-1-phosphate uridylyltransferase (GalT) activity of the enzyme liquid. Format: biochemical, E. coli. Conditions: galactose-1-phosphate uridylyltransferase activity of purified enzyme liquid, method by Takeda et al. On the procedure: E. coli (JM109 strain) (from Takara Bio) was transformed with a pTrc-GalT plasmid (JP-A-2002-335988) in which a gene encoding E. coli-derived GalT has been inserted. The transformed cells were inoculated to a 2×YT medium (50 mL) containing 100 μg/mL ampicillin, followed by shake culturing at 37° C. When the number of the cells reached 1×10^8 cells/mL, IPTG was added to the culture so as to adjust the final concentration to 1 mM, and shake culture was continued for further five hours. After completion of culturing, cells were collected through centrifugation (9,000×g, 20 min) and suspended in a buffer (50 mM HEPES-NaOH (pH: 8.0), 0.1 mM zinc sulfate, 10 mM 2-mercaptoethanol, and 50 mM sodium chloride) […]). The cells were disrupted through ultrasonication, and the product was centrifuged (20,000×g, 10 min), to thereby remove cell residues.
The thus-produced fraction was employed as an enzyme liquid in the following synthesis reactions. The galactose-1-phosphate uridylyltransferase (GalT) activity of the enzyme liquid was determined (Table 1). In the present invention, GalT activity was determined through a method by Takeda et al. (JP-A-2002-335988). The thus-yielded galactose-1-phosphate uridylyltransferase is identical to hexose-1-phosphate uridylyltransferase and catalyzes the same reaction (E.C.2.7.7.12).

Series [2] is described as follows: Galactokinase (GalK) activity of the enzyme liquid. Format: biochemical, E. coli. Conditions: galactokinase activity of purified enzyme liquid, method by Takeda et al. On the procedure: E. coli (JM109 strain) (from Takara Bio) was transformed with a pTrc-galK plasmid (JP-A-2002-335988) in which a gene encoding E. coli-derived GalK has been inserted. The transformed cells were inoculated to a 2×YT medium (100 mL) containing 100 μg/mL ampicillin, followed by shake culturing at 37° C. When the number of the cells reached 1×10^8 cells/mL, isopropyl-p-thiogalactoside (IPTG) was added to the culture so as to adjust the final concentration to 0.2 mM, and shake culture was continued for further eight hours. After completion of culturing, cells were collected through centrifugation (9,000×g, 20 min) and suspended in a buffer (20 mM Tris-HCl (pH 7.5) and 1 mM magnesium chloride) (10 mL). The cells were disrupted through ultrasonication, and the product was centrifuged (20,000×g, 10 min), to thereby remove cell residues.
The thus-produced fraction was employed as an enzyme liquid in the following synthesis reactions. The galactokinase (GalK) activity of the enzyme liquid was determined (Table 1). In the present invention, GalK activity was determined through a method by Takeda et al. (JP-A-2002-335988).

B1: GalT: E. coli-derived galactose-1-phosphate uridylyltransferase, purified enzyme liquid (protein, UniProt P09148 1-348, looked up)
Galactose-1-phosphate …: MTQFNPVDHPHRRYNPLTGQWILVSPHRAKRPWQGAQETPAKQVLPAHDPDCFLCAGNVRVTGDKNPDYTGTYVFTNDFAALMSDTPDAPESHDPLMRCQSARGTSRVICFSPDHSKTLPELSVAALTEIVKTWQEQTAELGKTYPWVQVFENKGAAMGCSNPHPHGQIWANSFLPNEAEREDRLQKEYFAEQKSPMLVDYVQRELADGSRTVVETEHWLAVVPYWAAWPFETLLLPKAHVLRITDLTDAQRSDLALALKKLTSRYDNLFQCSFPYSMGWHGAPFNGEENQHWQLHAHFYPPLLRSATVRKFMVGYEMLAETQRDLTAEQAAERLRAVSDIHFRESGV
B1 displayed an Enzymatic activity in series [1] of 46.7 units/mg protein.

B2: GalK: E. coli-derived galactokinase, purified enzyme liquid (protein, UniProt P0A6T3 2-382, looked up)
Galactokinase: SLKEKTQSLFANAFGYPATHTIQAPGRVNLIGEHTDYNDGFVLPCAIDYQTVISCAPRDDRKVRVMAADYENQLDEFSLDAPIVAHENYQWANYVRGVVKHLQLRNNSFGGVDMVISGNVPQGAGLSSSASLEVAVGTVLQQLYHLPLDGAQIALNGQEAENQFVGCNCGIMDQLISALGKKDHALLIDCRSLGTKAVSMPKGVAVVIINSNFKRTLVGSEYNTRREQCETGARFFQQPALRDVTIEEFNAVAHELDPIVAKRVRHILTENARTVEAASALEQGDLKRMGELMAESHASMRDDFEITVPQIDTLVEIVKAVIGDKGGVRMTGGGFGGCIVALIPEELVPAVQQAVAEQYEAKTGIKETFYVCKPSQGAGQC
B2: the Enzymatic activity in series [2] stood at 23.1 units/mg protein.

These data come from patent US8148112B2, “Sugar chain containing 4-position halogenated galactose and application thereof” (National University Corporation Hokkaido University, priority 2005, dated 2012).
